From PMC6166725

Biological target: maltose-binding protein fragment MBP198–265 [MBP: P0AEX9]
Test: ITC; iTC200, 22 °C; 350 μM MBP198–265 in the cell, 3.5 mM TF^PPD-SBD in the syringe; 20 mM potassium phosphate pH 7.0, 100 mM KCl, 0.05% NaN3

Kd: 47 µM | dH: -24.7 kJ/mol
Substance: trigger factor tandem domain TF^PPD-SBD (from UniProt P0A850 113-246) (domain or fragment)
